Laboratory results from patent US20180273587A1 (AILERON THERAPEUTICS, published 2018).
Positions of bridges follow the written chain, without caps; N, C: chain ends. Non-standard residues stand in square brackets, D forms with d. R8 = C=CCCCCCC[C@@](C)(N)C(=O)O; S5 = C=CCCC[C@](C)(N)C(=O)O; Aib = CC(C)(N)C(=O)O

How the values were obtained:
BCL-2 [1] = molecular target: BCL-2 (UniProt P10415); assay: Ki (Table 8); method not stated
BCL-XL [2] = molecular target: BCL-XL (UniProt Q07817); assay: Ki (Table 8); method not stated
Sequence of BCL-XL (UniProt Q07817) (Q07817 1-209): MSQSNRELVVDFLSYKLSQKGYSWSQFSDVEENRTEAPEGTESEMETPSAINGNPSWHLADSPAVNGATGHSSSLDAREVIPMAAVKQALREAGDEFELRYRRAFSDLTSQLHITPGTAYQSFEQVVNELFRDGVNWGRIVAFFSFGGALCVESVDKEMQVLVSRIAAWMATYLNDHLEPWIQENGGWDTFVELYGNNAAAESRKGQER

MCL-1 [3] = molecular target: MCL-1 (UniProt Q07820); assay: Ki (Table 8); method not stated
Sequence of MCL-1 (UniProt Q07820) (Q07820 172-327 limits assumed): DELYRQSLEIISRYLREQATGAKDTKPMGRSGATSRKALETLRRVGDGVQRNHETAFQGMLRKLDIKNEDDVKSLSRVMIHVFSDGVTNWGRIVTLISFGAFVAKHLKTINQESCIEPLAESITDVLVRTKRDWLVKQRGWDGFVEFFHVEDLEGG

BCL-2 [4] = molecular target: T1, BCL-2 (UniProt P10415 1-217, limits assumed); assay: Ki (Table 8); method not stated
T1 construct: Target of the Ki columns
T1 sequence (P10415 1-217 limits assumed): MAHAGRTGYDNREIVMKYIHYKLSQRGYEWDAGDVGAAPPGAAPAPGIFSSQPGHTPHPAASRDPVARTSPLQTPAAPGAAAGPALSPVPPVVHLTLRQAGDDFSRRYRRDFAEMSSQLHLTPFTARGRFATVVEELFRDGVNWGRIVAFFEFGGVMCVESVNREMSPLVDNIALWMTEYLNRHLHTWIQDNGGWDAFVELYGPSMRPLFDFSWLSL

BCL-XL [5] = molecular target: T2, BCL-XL (UniProt Q07817 1-209); assay: Ki (Table 8); method not stated
T2 construct: Target of the Ki columns
T2 sequence (Q07817 1-209): as the sequence (Q07817 1-209) above

MCL-1 [6] = molecular target: T3, MCL-1 (UniProt Q07820 172-327, limits assumed); assay: Ki (Table 8); method not stated
T3 construct: Target of the Ki columns; also called Myeloid cell leukemia 1
T3 sequence (Q07820 172-327 limits assumed): as the sequence (Q07820 172-327 limits assumed) above

BCL-2 [7] = molecular target: T1, BCL-2; assay: inhibitory constant assay (Table 7); method not stated
BCL-XL [8] = molecular target: T2, BCL-XL; assay: as above
MCL-1 [9] = molecular target: T3, MCL-1; assay: as above
BCL-2 [10] = molecular target: T1, BCL-2; assay: Ki (Table 6); method not stated
BCL-XL [11] = molecular target: T2, BCL-XL; assay: Ki (Table 6); method not stated
MCL-1 [12] = molecular target: T3, MCL-1; assay: Ki (Table 6); method not stated

Sequence of BCL-2 (UniProt P10415) (P10415 1-217 limits assumed): as the sequence (P10415 1-217 limits assumed) above

BIM-SAHBA1 (peptide) was tested, and the Ki (BCL-2 [1]) was 29.6 nM, the Ki (BCL-XL [2]) was 6.2 nM and the Ki (MCL-1 [3]) was 2.7 nM.

B1: Cross-linked peptide #14 (peptide)
peptide: Ac-RWIAQALR[S5]IGD[S5]LN[Aib]FYAHH-NH2
modifications: staple 9-13
SMILES: CC[C@H](C)[C@H](NC(=O)[C@H](Cc1c[nH]c2ccccc12)NC(=O)[C@H](CCCNC(=N)N)NC(C)=O)C(=O)N[C@@H](C)C(=O)N[C@@H](CCC(N)=O)C(=O)N[C@@H](C)C(=O)N[C@@H](CC(C)C)C(=O)N[C@@H](CCCNC(=N)N)C(=O)N[C@@]1(C)CCCC=CCCC[C@@](C)(C(=O)N[C@@H](CC(C)C)C(=O)N[C@@H](CC(N)=O)C(=O)NC(C)(C)C(=O)N[C@@H](Cc2ccccc2)C(=O)N[C@@H](Cc2ccc(O)cc2)C(=O)N[C@@H](C)C(=O)N[C@@H](Cc2c[nH]cn2)C(=O)N[C@@H](Cc2c[nH]cn2)C(N)=O)NC(=O)[C@H](CC(=O)O)NC(=O)CNC(=O)[C@H]([C@@H](C)CC)NC1=O
Molecule B1 has a Ki (BCL-2 [4]) of 215 nM, a Ki (BCL-XL [5]) of 114 nM and a Ki (MCL-1 [6]) of 17 nM. For the same molecule, the Ki (BCL-2 [7]) was 151 nM, the Ki (BCL-XL [8]) was 178 nM and the Ki (MCL-1 [9]) was 11 nM.

B2: Cross-linked peptide #16 (peptide)
peptide: IWIAQALRALGDAFNAYFA
modifications: not fully specified; N-terminal Ac; $r8 at residue 9 (column 154) and $ at residue 16 (column 161), crosslinked; hL at residue 10 (column 155); F4F at residue 18 (column 163); C-terminal NH2
For B2, the Ki (BCL-XL [5]) was 13 nM and the Ki (MCL-1 [6]) was 27 nM.

B3: Cross-linked peptide #15 (peptide)
peptide: Ac-IWIAQALR[R8]IGDEFN[S5]YYARR-NH2
modifications: staple 9-16
SMILES: CC[C@H](C)[C@H](NC(C)=O)C(=O)N[C@@H](Cc1c[nH]c2ccccc12)C(=O)N[C@H](C(=O)N[C@@H](C)C(=O)N[C@@H](CCC(N)=O)C(=O)N[C@@H](C)C(=O)N[C@@H](CC(C)C)C(=O)N[C@@H](CCCNC(=N)N)C(=O)N[C@]1(C)CCCCCCC=CCCC[C@@](C)(C(=O)N[C@@H](Cc2ccc(O)cc2)C(=O)N[C@@H](Cc2ccc(O)cc2)C(=O)N[C@@H](C)C(=O)N[C@@H](CCCNC(=N)N)C(=O)N[C@@H](CCCNC(=N)N)C(N)=O)NC(=O)[C@H](CC(N)=O)NC(=O)[C@H](Cc2ccccc2)NC(=O)[C@H](CCC(=O)O)NC(=O)[C@H](CC(=O)O)NC(=O)CNC(=O)[C@H]([C@@H](C)CC)NC1=O)[C@@H](C)CC
In the case of B3, the Ki (BCL-2 [4]) is reported as 12.8 nM, the Ki (BCL-XL [5]) is reported as 5.2 nM and the Ki (MCL-1 [6]) is reported as 10.6 nM.

B4: Cross-linked peptide #5 (peptide)
peptide: IWIAQALXAIGDAFNAYYA
modifications: N-terminal Ac; Cit at residue 8 (column 153); $r8 at residue 9 (column 154) and $ at residue 16 (column 161), crosslinked; C-terminal NH2
With B4 the Ki (BCL-2 [10]) was 212 nM, the Ki (BCL-XL [11]) was 110 nM and the Ki (MCL-1 [12]) was 7.5 nM.
